Measured values as given in patent publication US20180217151A1.
Values belong to the binder of their own block, whether it stands above or below them.

Legend:
[1] = biological target: CD19 antigen on human PBMCs (human) (UniProt P15391); test: flow cytometry, human PBMCs, biotinylated Fab 1 µg/mL, SA-APC, before washing; median of control (background) 0.25
[2] = biological target: recombinant CD19 antigen (not stated (the Fab labels human PBMCs)) (UniProt P15391); test: SPR (Biacore), recombinant antigen (extracellular domain) immobilized by amine coupling, Fab as analyte, 1:1 binding mass transfer model
[3] = biological target: CD19 antigen on human PBMCs (human) (UniProt P15391); test: flow cytometry on human PBMCs, SA-APC median after five washing steps; background 0.2
[4] = biological target: CD19 antigen on human PBMCs (human) (UniProt P15391); test: flow cytometry, human PBMCs, biotinylated Fab 1 µg/mL, SA-APC, after five washing steps; enables reversible labeling: yes
[5] = biological target: CD45RA antigen on human PBMCs (human) (UniProt P08575); test: flow cytometry, human PBMCs, biotinylated Fab 1 µg/mL, SA-APC, after five washing steps; median of control (background) 0.1; enables reversible labeling: yes
[6] = biological target: CD45RA antigen on human PBMCs (human) (UniProt P08575); test: flow cytometry, human PBMCs, biotinylated Fab 1 µg/mL, SA-APC, before washing; median of control (background) 0.1
[7] = biological target: CD45RA antigen on human PBMCs (human) (UniProt P08575); test: flow cytometry, human PBMCs, biotinylated Fab 1 µg/mL, SA-APC, after five washing steps; enables reversible labeling: yes
[8] = biological target: recombinant CD8 antigen (not stated (the Fab labels human PBMCs)); test: SPR (Biacore), recombinant antigen (extracellular domain) immobilized by amine coupling, Fab as analyte, 1:1 binding mass transfer model
[9] = biological target: CD8 antigen on human PBMCs (human) (UniProt P01732); test: flow cytometry, human PBMCs, biotinylated Fab 1 µg/mL, SA-APC, before washing; median of control (background) 0.1
[10] = biological target: CD8 antigen on human PBMCs (human) (UniProt P01732); test: flow cytometry, human PBMCs, biotinylated Fab 1 µg/mL, SA-APC, after five washing steps; median of control (background) 0.1; enables reversible labeling: no
[11] = biological target: CD8 antigen on human PBMCs (human) (UniProt P01732); test: flow cytometry, human PBMCs, biotinylated Fab 1 µg/mL, SA-APC, after five washing steps; enables reversible labeling: no

Chain of recombinant CD8 antigen (not stated (the Fab labels human PBMCs)) (P01732 22-182): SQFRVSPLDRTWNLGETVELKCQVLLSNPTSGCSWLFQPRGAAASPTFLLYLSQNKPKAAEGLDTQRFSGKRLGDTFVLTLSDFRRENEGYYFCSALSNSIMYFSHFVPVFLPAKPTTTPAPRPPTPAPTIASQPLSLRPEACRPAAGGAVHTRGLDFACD
Chain of CD19 antigen on human PBMCs (human) (P15391 20-556): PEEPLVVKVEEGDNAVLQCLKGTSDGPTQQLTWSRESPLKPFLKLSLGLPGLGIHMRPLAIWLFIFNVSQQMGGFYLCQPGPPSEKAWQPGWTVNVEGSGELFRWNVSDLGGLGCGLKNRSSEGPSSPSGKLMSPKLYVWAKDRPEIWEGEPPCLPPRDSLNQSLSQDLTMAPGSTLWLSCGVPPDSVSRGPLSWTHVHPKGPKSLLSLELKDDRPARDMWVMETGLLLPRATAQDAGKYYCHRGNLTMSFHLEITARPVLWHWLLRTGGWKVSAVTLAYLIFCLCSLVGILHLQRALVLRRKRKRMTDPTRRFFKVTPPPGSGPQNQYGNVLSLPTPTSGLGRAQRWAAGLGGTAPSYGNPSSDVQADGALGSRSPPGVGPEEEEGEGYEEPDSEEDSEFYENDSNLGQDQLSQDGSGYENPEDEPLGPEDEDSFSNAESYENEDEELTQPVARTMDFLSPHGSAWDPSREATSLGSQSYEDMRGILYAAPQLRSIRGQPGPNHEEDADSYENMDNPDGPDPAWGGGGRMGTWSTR
Chain of CD8 antigen on human PBMCs (human) (P01732 22-235): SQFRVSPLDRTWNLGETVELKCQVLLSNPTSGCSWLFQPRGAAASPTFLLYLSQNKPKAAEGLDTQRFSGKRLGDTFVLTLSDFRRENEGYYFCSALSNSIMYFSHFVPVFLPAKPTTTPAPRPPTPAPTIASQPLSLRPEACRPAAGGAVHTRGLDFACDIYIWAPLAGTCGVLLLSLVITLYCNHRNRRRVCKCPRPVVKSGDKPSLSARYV
Chain of recombinant CD19 antigen (not stated (the Fab labels human PBMCs)) (P15391 20-291): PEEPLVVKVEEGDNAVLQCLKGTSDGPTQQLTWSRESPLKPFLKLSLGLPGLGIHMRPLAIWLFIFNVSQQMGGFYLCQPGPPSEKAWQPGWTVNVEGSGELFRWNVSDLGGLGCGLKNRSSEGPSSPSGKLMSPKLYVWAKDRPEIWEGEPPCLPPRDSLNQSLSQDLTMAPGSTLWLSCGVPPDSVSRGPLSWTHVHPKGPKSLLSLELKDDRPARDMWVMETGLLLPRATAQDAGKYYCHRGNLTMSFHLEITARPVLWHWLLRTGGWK

median value (i) [1]: 27
Kd [2]: 7 nM
koff [2]: 0.0031 s⁻¹
kon [2]: 440000 M⁻¹ s⁻¹
median of remaining detectable label after removal of Fab [3]: 1.2
% median value of the detected label after Fab removal (before = 100%) [4]: 4.4%
B1: SJ25-C1 pFab (Fab, from another filing, V domains shown)
VH: EVKLQQSGAELVRPGSSVKISCKASGYAFSSYWMNWVKQRPGQGLEWIGQIYPGDGDTNYNGKFKGQATLTADKSSSTAYMQLSGLTSEDSAVYFCARKTISSVVDFYFDYWGQGTTVTVSS
VL: DIELTQSPKFMSTSVGDRVSVTCKASQNVGTNVAWYQQKPGQSPKPLIYSATYRNSGVPDRFTGSGSGTDFTLTITNVQSKDLADYFCQQYNRYPYTSGGGTKLEI

median value after Fab removal (ii) [5]: 0.2
median value (i) [6]: 2.9
% median value of the detected label after Fab removal (before = 100%) [7]: 6.9%
B2: MEM56-LAV rFab (Fab, V domains shown)
VH: QVQLQQSGAELAKPGASVKMSCKASGYNFTRYWMHWIKQRPGQGLEWIGYINPNTGHTEYNQKFKDKATLTADKSSSTAYMQLSSLTSEDSAVYYCATYYYGSRRDAGQGTTLTVSS
VL: QIVLTQSPAIMSASLGERVTMTCTTSSSVSSSYLHWYQQKPGSSPKLWIYSTSNLASGVPARFSGSGSGTSYSLTISTVEAEDAATYYCHQYHRSPLTFGAGTKLELKR
modifications: In the cell assay the Fab was biotinylated with a thiol-reactive reagent (e.g. maleimide-PEO2-biotin) on cysteines of the reduced disulfide bridge; positions not stated.

Kd [8]: 0.62 nM
koff [8]: 0.0013 s⁻¹
kon [8]: 2.1e+06 M⁻¹ s⁻¹
median value (i) [9]: 45
median value after Fab removal (ii) [10]: 23
% median value of the detected label after Fab removal (before = 100%) [11]: 51%
B3: OKT8 pFab (Fab, from another filing, V domains shown)
VH: EVQLQQSGAELVKPGASVKLSCTASGFNIKDTYIHFVRQRPEQGLEWIGRIDPANDNTLYASKFQGKATITADTSSNTAYMHLCSLTSGDTAVYYCGRGYGYYVFDHWGQGTTLTVSS
VL: DVQINQSPSFLAASPGETITINCRTSRSISQYLAWYQEKPGKTNKLLIYSGSTLQSGIPSRFSGSGSGTDFTLTISGLEPEDFAMYYCQQHNENPLTFGAGTKLELK
